{"source": "patent US20220332804A1", "about": "(CSL INNOVATION, published 2022)", "test_in_all_cases": "SPR, KD relative to WT C2;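 note: biacore SPR at 37 °C, anti-C2 mAbs captured via immobilised goat anti-human IgG, C2 alanine or serine surface mutants as analytes, 1:1 model fitted, double-referenced sensograms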", "key": {"human C2 P704A": {"molecular_target": "T1, human C2 P704A (human, UniProt P06681 21-752)", "T1 sequence": "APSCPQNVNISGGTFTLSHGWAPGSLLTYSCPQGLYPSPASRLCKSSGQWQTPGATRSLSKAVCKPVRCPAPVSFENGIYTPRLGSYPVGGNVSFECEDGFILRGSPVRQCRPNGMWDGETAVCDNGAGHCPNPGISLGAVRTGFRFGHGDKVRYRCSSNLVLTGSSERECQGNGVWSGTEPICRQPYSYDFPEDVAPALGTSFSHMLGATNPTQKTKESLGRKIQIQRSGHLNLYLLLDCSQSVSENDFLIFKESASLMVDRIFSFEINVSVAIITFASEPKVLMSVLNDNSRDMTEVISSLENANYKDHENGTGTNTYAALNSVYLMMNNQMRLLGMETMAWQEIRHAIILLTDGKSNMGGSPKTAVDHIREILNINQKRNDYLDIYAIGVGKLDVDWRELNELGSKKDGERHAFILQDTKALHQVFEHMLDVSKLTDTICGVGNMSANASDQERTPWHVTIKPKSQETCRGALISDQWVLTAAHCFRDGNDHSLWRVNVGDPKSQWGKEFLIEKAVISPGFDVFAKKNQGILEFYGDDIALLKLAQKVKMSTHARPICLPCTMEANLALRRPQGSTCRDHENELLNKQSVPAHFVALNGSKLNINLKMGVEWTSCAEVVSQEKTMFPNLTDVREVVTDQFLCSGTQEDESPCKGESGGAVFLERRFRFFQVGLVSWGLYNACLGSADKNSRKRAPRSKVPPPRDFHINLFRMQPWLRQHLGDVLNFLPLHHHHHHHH"}, "human C2 A472S": {"molecular_target": "T2, human C2 A472S (human, UniProt P06681 21-752)", "T2 sequence": "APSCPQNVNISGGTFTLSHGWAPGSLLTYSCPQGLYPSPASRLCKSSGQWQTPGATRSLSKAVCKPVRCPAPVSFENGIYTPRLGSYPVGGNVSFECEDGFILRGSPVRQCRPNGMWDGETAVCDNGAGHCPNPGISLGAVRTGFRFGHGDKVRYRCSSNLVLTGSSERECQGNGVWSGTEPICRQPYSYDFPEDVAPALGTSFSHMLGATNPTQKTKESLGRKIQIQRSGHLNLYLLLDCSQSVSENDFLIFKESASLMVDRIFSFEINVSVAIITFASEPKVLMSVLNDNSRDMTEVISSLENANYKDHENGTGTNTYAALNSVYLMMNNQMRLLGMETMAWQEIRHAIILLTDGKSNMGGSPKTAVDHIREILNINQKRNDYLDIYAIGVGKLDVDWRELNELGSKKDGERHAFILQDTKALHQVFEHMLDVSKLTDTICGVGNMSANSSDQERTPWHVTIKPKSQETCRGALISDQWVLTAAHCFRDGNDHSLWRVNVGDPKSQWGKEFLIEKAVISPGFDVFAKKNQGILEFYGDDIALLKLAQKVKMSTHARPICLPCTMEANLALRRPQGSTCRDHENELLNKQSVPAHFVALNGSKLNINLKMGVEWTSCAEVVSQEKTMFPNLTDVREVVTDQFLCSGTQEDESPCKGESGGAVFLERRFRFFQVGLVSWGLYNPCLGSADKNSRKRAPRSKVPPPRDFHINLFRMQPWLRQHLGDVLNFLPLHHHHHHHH"}, "human C2 T491A": {"molecular_target": "T3, human C2 T491A (human, UniProt P06681 21-752)", "T3 sequence": "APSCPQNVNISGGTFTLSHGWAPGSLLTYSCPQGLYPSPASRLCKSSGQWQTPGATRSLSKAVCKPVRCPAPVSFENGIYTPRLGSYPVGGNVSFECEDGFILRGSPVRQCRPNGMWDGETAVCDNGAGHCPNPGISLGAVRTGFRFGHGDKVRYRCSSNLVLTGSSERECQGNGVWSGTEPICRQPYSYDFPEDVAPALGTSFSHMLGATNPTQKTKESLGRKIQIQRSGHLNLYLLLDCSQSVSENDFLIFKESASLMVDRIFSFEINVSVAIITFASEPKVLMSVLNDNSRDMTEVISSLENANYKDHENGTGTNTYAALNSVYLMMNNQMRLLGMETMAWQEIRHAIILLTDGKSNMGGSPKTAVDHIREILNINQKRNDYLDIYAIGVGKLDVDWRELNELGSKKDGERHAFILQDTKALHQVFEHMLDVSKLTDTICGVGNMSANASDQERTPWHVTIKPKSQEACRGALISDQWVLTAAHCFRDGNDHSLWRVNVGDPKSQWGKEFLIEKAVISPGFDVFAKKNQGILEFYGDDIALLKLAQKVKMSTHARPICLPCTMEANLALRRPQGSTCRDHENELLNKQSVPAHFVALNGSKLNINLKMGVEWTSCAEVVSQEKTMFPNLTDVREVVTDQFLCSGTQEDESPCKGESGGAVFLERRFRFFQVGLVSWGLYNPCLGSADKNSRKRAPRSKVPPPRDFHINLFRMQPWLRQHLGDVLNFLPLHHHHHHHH"}, "human C2 N621A": {"molecular_target": "T4, human C2 N621A (human, UniProt P06681 21-752)", "T4 sequence": "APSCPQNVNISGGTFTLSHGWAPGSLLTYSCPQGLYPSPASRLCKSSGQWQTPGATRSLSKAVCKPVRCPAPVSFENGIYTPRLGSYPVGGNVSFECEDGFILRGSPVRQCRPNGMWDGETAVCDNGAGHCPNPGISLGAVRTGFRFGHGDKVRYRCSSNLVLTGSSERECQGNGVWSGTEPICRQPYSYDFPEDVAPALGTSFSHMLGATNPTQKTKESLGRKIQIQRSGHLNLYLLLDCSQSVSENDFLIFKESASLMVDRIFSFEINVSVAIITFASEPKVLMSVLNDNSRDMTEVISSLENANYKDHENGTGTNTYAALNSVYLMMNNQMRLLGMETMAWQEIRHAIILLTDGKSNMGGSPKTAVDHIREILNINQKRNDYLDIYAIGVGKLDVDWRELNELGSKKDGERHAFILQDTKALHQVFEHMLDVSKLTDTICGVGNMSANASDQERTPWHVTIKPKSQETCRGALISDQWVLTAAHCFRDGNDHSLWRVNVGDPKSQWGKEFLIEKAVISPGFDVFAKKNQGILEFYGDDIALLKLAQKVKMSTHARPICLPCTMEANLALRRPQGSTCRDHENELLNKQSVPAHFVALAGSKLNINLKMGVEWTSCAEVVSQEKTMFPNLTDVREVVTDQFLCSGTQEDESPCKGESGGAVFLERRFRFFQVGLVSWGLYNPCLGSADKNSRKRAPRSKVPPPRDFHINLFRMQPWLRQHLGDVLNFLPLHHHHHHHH"}}, "data": [{"binder": "RF16-226 (antibody, human IgG4 S228P, lambda, pH-dependent anti-C2 antibody from a phage display library; also called WT) heavy: not shown light: SYELTQPPSVSVSPGQTARITCSGDALTSKYVAWYQQKSGLAPLLVIYEDTRRPSGIPAKFSGSSSGSVATLTISGAHGDDEADYYCYSTDASGHQRVFGGGTKLTVLSQPKAAPSVTLFPPSSEELQANKATLVCLISDFYPGAVTVAWKADGSPVKAGVETTKPSKQSNNKYAASSYLSLTPEQWKSHRSYSCQVTHEGSTVEKTVAPTECS", "values": [{"measurement": "Fold diff", "setting": "human C2 P704A", "value": 12, "unit": "fold"}, {"measurement": "Fold diff", "setting": "human C2 A472S", "value": 5, "unit": "fold"}, {"measurement": "Fold diff", "setting": "human C2 T491A", "value": 2, "unit": "fold"}, {"measurement": "Fold diff", "setting": "human C2 N621A", "value": 5, "unit": "fold"}]}]}
